Results on ten proteins are retold here after the PETadex activity labels.

A short description of series [1]: Proxy for plastic degradation [Weight/mass loss]. The conditions noted are these: pH 8.
Substrate in series [2]: PET
The experiment in a line: Proxy for plastic degradation [Weight/mass loss].

Substrate in the next series: PBSA
The experiment in a line: Proxy for plastic degradation [kcat/Km (catalytic efficiency)] (mM⁻¹s⁻¹). The conditions noted are these: pH 8.2.

Substrate in series [3]: PET
Kind of series: Proxy for plastic degradation [Released Products (MHET,BHET, TPA)]. The conditions noted are these: pH 8.

Substrate in a further series: pNPB
The experiment in a line: Proxy for plastic degradation [Residual activity]. Conditions: pH 8.

Substrate in another series: PCL
The experiment in a line: Proxy for plastic degradation [Residual activity]. Conditions: pH 8.

Substrate in series [4]: PET
Kind of series: Proxy for plastic degradation [Released monomer concentration (HPLC/LC-MS) (MHET+TPA)]. Conditions: pH 8.

Substrate in series [5]: PET
Kind of series: Proxy for plastic degradation [adsorption equilibrium constant (K_A), utilising heterogeneous kinetic model]. Conditions: pH 8.

Substrate in series [6]: PET
The experiment in a line: Proxy for plastic degradation [MHET inhibitor binding constant (beta), utilising the kinetic inhibition model]. The conditions noted are these: pH 8.

Substrate in series [7]: PET
The experiment in a line: Proxy for plastic degradation [hydrolysis rate constant (k_h), utilising heterogeneous kinetic model] (µmol/(cm²·h)). The conditions noted are these: pH 8.

Substrate in series [8]: PET
Kind of series: Proxy for plastic degradation [Absorbance @ 240nm].

B1: unnamed (protein)
chain: MDGVLWRVRTAALMAALLALAAWALVWASPSVEAQSNPYQRGPNPTRSALTADGPFSVATYTVSRLSVSGFGGGVIYYPTGTSLTFGGIAMSPGYTADASSLAWLGRRLASHGFVVLVINTNSRFDYPDSRASQLSAALNYLRTSSPSAVRARLDANRLAVAGHSMGGGGTLRIAEQNPSLKAAVPLTPWHTDKTFNTSVPVLIVGAEADTVAPVSQHAIPFYQNLPSTTPKVYVELDNASHFAPNSNNAAISVYTISWMKLWVDNDTRYRQFLCNVNDPALSDFRTNNRHCQ
With B1, the “Proxy for plastic degradation” value in [1] was determined as 9 mg; with PET [2] (pH 8) it was 1.5 mg.

B2: unnamed (protein)
chain: MELALALSLIASVAAAPTATLANGDTITGLNAIINEAFLGIPFAEPPVGNLRFKDPVPYSGSLDGQKFTSYGPSCMQQNPEGTYEENLPKAALDLVMQSKVFEAVSPSSEDCLTINVVRPPGTKAGANLPVMLWIFGGGFEVGGTSTFPPAQMITKSIAMGKPIIHVSVNYRVSSWGFLAGDEIKAEGSANAGLKDQRLGMQWVADNIAAFGGDPTKVTIFGESAGSMSVMCHILWNDGDNTYKGKPLFRAGIMQSGAMVPSDAVDGIYGNEIFDLLASNAGCGSASDKLACLRGVSSDTLEDATNNTPGFLAYSSLRLSYLPRPDGVNITDDMYALVREGKYANIPVIIGDQNDEGTFFGTSSLNVTTDAQAREYFKQSFVHASDAEIDTLMTAYPGDITQGSPFDTGILNALTPQFKRISAVLGDLGFTLARRYFLNHYTGGTKYSFLSKQLSGLPVLGTFHSNDIVFQDYLLGSGSLIYNNAFIAFATDLDPNTAGLLVKWPEYTSSSQSGNNLMMINALGLYTGKDNFRTAGYDALFSNPPSFFV
For the protein B2, the entries for the “Proxy for plastic degradation” value (in [1]; with PET [2] (pH 8)) were 0.2 mg and 0 mg, respectively.

B3: unnamed (protein)
chain: MLAVWDDTLAHPVRGRDRELATLTGLLDNTSGRRGTGMVVVGAPGTGKTTLLNALVEHAEGFQVLWAEGSAAESDVRFAGVEQLLRPLESLVSLLPDDRGRALRPVWGLPADDEGQVGSLAVPAAVSALLGLAARRQPVLCCVDSAHLLDSASLSALAFAARRAHHAGVVFVFAVDCTADTEVDTETSVWGELPRLRLGRLDDEAAHALLRDRLGASLPHDLADSLLDVGHGAPLALVELAESLTPEHLCGRAAPPSSPPPEGRLCRTLGHRLSALSEGAREVVALAGISEGLDEQLTCRVLPHHRSTLAEAVRSGLVVLDGDTVRTAADTVPSALLAALTPQDIVQAHHRMAEAAEAVGDRDRAVWHRAAIAMAPDPALVADLDDIAERARAAAAHATAAAASERAAALTSDTKERARRLVAAATDHWASGRPQRARTALRLAAPLSDSVLGARVSRLAGEIELRRGDPSVAATKLISTARQLASTHRTLAASALMLAGEASFVAGDNARYCLTAKDAALLCGPEEWPATRVVREHFTAMSATFRGEHSAAAAPLRSLVELGETTPDPTAKTLASQAAFTLGDAERSRDLALQAVVCARARGDESGVPWALVYAALSALLSGQLSAASTTALEGLQVARSLGQSNSAVDHVTVLAMLAALQGDEETALQRLQAANTELAERGLGRPSALATWAAACVDLAHDRPAEAFDRFRRMTVGRSRHCVPLRVMAVPHFVEAAVRCGEKEVARRSLVTFEHWANTTGGTARVALAHRCHALLAEQDGEAQERFTEAVRLHREADAPYDLAVTQLLYASHLRRSRRPKQARELLREAVQLFDDLGATHWVERASQELRACGHPGRGKPHLSRGLSPQQERIAQLVADGATNKEIATQLFISHRTVDHHLRNIFAKLDVRSRVQLAALFR
Regarding B3, the “Proxy for plastic degradation” value with PBSA stood at 430.

B4: unnamed (protein)
chain: MLAVWDDTLAHPVRGRDRELATLTGLLDNTSGRRGTGMVVVGAPGTGKTTLLNALVEHAEGFQVLWAEGSAAESDVRFAGVEQLLRPLESLVSLLPDDRGRALRPVWGLPADDEGQVGSLAVPAAVSALLGLAARRQPVLCCVDSAHLLDSASLSALAFAARRAHHAGVVFVFAVDCTADTEVDTETSVWGELPRLRLGRLDDEAAHALLRDRLGASLPHDLADSLLDVGHGDPLALVELAESLTPEHLCGRAAPPSSPPPEGRLCRTLGHRLSALSEGAREVVALAGISEGLDEQLTCRVLPHHRSTLAEAVRSGLVVLDGDTVRTAADTVPSALLAALTPQDIVQAHHRMAEAAEAVGDRDRAVWHRAAIAMAPDPALVADLDDIAERARAAAAHATAAAASERAAALTSDTKERARRLVAAATDHWASGRPQRARTALRLAAPLSDSVLGARVSRLAGEIELRRGDPSVAATKLISTARQLASTHRTLAASALMLAGEASFVAGDNARYCLTAKDAALLCGPEEWPATRVVREHFTAMSATFRGEHSAAAAPLRSLVELGETTPDPTAKTLASQAAFTLGDAERSRDLALQAVVCARARGDESGVPWALVYAALSALLSGQLSAASTTALEGLQVARSLGQSNSAVDHVTVLAMLAALQGDEETALQRLQAANTELAERGLGRPSALATWAAACVDLAHDRPAEAFDRFRRMTVGRSRHCVPLRVMAVPHFVEAAVRCGEKEVARRSLVTFEHWANTTGGTARVALAHRCHALLAEQDGEAQERFTEAVRLHREADAPYDLAVTQLLYASHLRRSRRPKQARELLREAVQLFDDLGATHWVERASQELRACGHPGRGKPHLSRGLSPQQERIAQLVADGATNKEIATQLFISHRTVDHHLRNIFAKLDVRSRVQLAALFR
On to B4, for which the “Proxy for plastic degradation” value in the series with PBSA was determined as 330.

B5: unnamed (protein)
chain: MGSSHHHHHHSSGLVPRGSHMRGPNPTAASLEASAGPFTVRSFTVSRPSGYGAGTVYYPTNAGGTVGAIAIVPGYTARQSSIKWWGPRLASHGFVVITIDTNSTLDQPSSRSSQQMAALRQVASLNGTSSSPIYGKVDTARMGVMGWSMGGGGSLISAANNPSLKAAAPQAPWDSSTNFSSVTVPTLIFACENDSIAPVNSSALPIYDSMSRNAKQFLEINGGSHSCANSGNSNQALIGKKGVAWMKRFMDNDTRYSTFACENPNSTRVSDFRTANCSLEDPAANKARKEAELAAATAEQ
B5: the “Proxy for plastic degradation” value with PET [3] (4 °C) was found to be 100 µM; with PET [3] (16 °C), 410 µM; in the series with PET [3] (30 °C) it was 1100 µM; in the series with PET [3] (37 °C), 300 µM; in the series with PET [3] (55 °C), 180 µM; with PET [3] (70 °C), 100 µM.

B6: unnamed (protein)
chain: SNPYQRGPNPTRSALTADGPFSVATYTVSRLSVSGFGGGVIYYPTGTSLTFGGIAMSPGYTADASSLAWLGRRLASHGFVVLVINTNSRFDYPDSRASQLSAALNYLRTSSPSAVRARLDANRLAVAGHSMGGGGTLRIAEQNPSLKAAVPLTPWHTDKTFNTSVPVLIVGAEADTVAPVSQHAIPFYQNLPSTTPKVYVELDNASHFAPNSNNAAISVYTISWMKLWVDNDTRYRQFLCNVNDPALSDFRTNNRHCQHHHHHH
For the protein B6, the “Proxy for plastic degradation” value turned out to be 100% in the series with pNPB (40 °C), 100% with pNPB (50 °C), 0% with pNPB (90 °C) and 0% with pNPB (95 °C).

B7: unnamed (protein)
chain: ANPYERGPNPTDALLEARSGPFSVSEENVSRLSASGFGGGTIYYPRENNTYGAVAISPGYTGTEASIAWLGERIASHGFVVITIDTITTLDQPDSRAEQLNAALNHMINRASSTVRSRIDSSRLAVMGHSMGGGGSLRLASQRPDLKAAIPLTPWHLNKNSSVTVPTLIIGADLDTIAPVATHAKPFYNSLPSSISKAYLELDGATHFAPNIPNKIIGKYSVAWLKRFVDNDTRYTQFLCPGPRDGLFGEVEEYRSTCPFY
As for B7, the “Proxy for plastic degradation” value in the series with PET [2] (pH 8) turned out to be 15.9%; with PCL it was 36.5%; in the series with PET [4], 27 µM; in the series with PET [5] it was 0.338 mL/µg; with PET [6] it was 0.738 L/mmol; with PET [7], 0.094.

B8: unnamed (protein)
chain: MFQRVWALTAALMLMLSLGATSSHAAQNPHERGPDPSNSYIEQARGSYSVSQRSISRLGSDGFRDGTMYYPTSTADGRFGVVAISPGYTASESTIAWLGPRLASFGFVVVTINTDSRYDQPRQRATQLHAALDHAIGDSVVGPRIDTSRQAVMGHSMGGGGALQAAEERDEIRAAVPLTPWNLKKGWSGVDAATLVIGAENDAIAPVRSHSIPFYESLTNAERRAYLELRREGHFAPNSSNTLIAKYSVSWLKRYVDNDLRYDQFIDPGPRTGITTGVSDYRLG
In the case of B8, the “Proxy for plastic degradation” value in the series with PET [8] (pH 8, 0 h) was 0 µM; with PET [8] (pH 8, 10 °C) it was 0.012 AU; with PET [8] (pH 8, 28 °C), 0.016 AU; with PET [8] (pH 8, 37 °C), 0.045 AU; with PET [8] (pH 8, 45 °C), 0.073 AU; with PET [8] (pH 8.5), 0.199 AU. Further, the “Proxy for plastic degradation” value in the series with PET [8] (pH 9.5) was found to be 0.085 AU; in the series with PET [8] (pH 10.5) it was 0.015 AU.

B9: unnamed (protein)
chain: MARTMRSRVVAGAVACAMSIAPFAGTTAVMTLATTHAAMAATAPAAGYAATRYPIILVHGLSGTDKYAGVLEYWYGIQEDLQQNGATVYVANLSGFQSDDGPNGRGEQLLAYVKTVLAATGATKVNLVGHSQGGLSSRYVAAVAPDLVASVTTIGTPHRGSEFADFVQDVLAYDPTGLSSSVIAAFVNVFGILTSSSHNTNQDALAALQTLTTARAATYNQNYPSAGLGAPGSCQTGAPTETVGGNTHLLYSWAGTAIQPTLSVFGVTGATDTSTLPLVDPANVLDLSTLALFGTGTVMINRGSGQNDGLVSKCSALYGKVLSTSYKWNHLDEINQLLGVRGAYAEDPVAVIRTHANRLKLAGV
Regarding B9, the “Proxy for plastic degradation” value in series [1] came out at 2.8 mg; with PET [2] (pH 8) it was 0 mg.

B10: unnamed (protein)
chain: ANPYERGPNPTDALLEARSGPFSVSEENVSRLSASGFGGGTIYYPRENNTYGAVAISPGYTATEASIAWLGERIASHGFVVITIDTITTLDQPDSRAEQLNAALNHMINRASSTVRSRIDSSRLAVMGHSMGGGGSLRLASQRPDLKAAIPLTPWHLNKNWSSVTVPTLIIGADLDTIAPVATHAKPFYNSLPSSISKAYLELDGATHAAPNIPNKIIGKYSVAWLKRFVDNDTRYTQFLCPGPRDGLFGEVEEYRSTCPFYPNSSSVDKLAAALE
With B10, the “Proxy for plastic degradation” value in the series with PET [2] (pH 9, 6 h) was 20%.
